Experimental data: paper PMC6154995, “Heme-dependent Inactivation of 5-Aminolevulinate Synthase from Caulobacter crescentus” (Scientific Reports, 2018)

Biological target: the molecule itself
Experiment: SEC + native gel or EMSA; data not shown; purified yellow (PLP) and red (heme) fractions of recombinant cALAS; oligomeric state in solution; conditions not given

Protein | stoichiometry N
5-aminolevulinate synthase from Caulobacter crescentus, heme form (red form) (enzyme, 5-aminolevulinate synthase (ALAS) of Caulobacter crescentus CB15, gene CC_1355, 408 residues, predicted mass 44,273 Da; gene PCR-amplified from genomic DNA; Same polypeptide as m1; also called cALAS; red form of cALAS; source: E. coli BL21(DE3) pLysS, pET-28b, purified (HisTrap FF Crude, Mono Q; second, reddish-brown eluate of the anion exchange column)) not shown | 2
5-aminolevulinate synthase from Caulobacter crescentus, PLP form (yellow form) (enzyme, pyridoxal 5'-phosphate (PLP), predicted to bind to the ε-amino group of Lys248, 5-aminolevulinate synthase (ALAS) of Caulobacter crescentus CB15, gene CC_1355, 408 residues, predicted mass 44,273 Da; gene PCR-amplified from genomic DNA; Same polypeptide as m2; also called cALAS; C. crescentus ALAS; source: E. coli BL21(DE3) pLysS, pET-28b, purified (HisTrap FF Crude, Mono Q; first, yellow eluate of the anion exchange column)) not shown | 2
